Assay results reported in paper PMC2940250.

Tests used:
Test in all cases: other fluorescence titration
[1] = molecular target: B1 chimeric virus (HRV14:HIV-1 gp41 ELDKWAS chimera) (human rhinovirus 14 | HIV-1 HxB2)
[2] = molecular target: 14-C40-1 chimeric virus (HRV14:HIV-1 gp41 ALDKWAS chimera from a previous library) (human rhinovirus 14 | HIV-1 HxB2)
[3] = molecular target: C1 chimeric virus (HRV14:HIV-1 gp41 ELDKWAS chimera) (human rhinovirus 14 | HIV-1 HxB2)

Substance: broadly neutralizing human mAb 2F5 (antibody)
- Kd [1]: 2 nM
- Kd [2]: 769 nM
- Kd [3]: 23.8 nM
